Measurements from patent US8591908B2, “Immunogen for preparation of therapeutic vaccines or drugs for treatment of hepatitis B and the producing method and use thereof” (Institute of Immunology, PLA, priority 2002, dated 2013).
Ends that are not written are not given here. * marks the point of attachment. linolenoyl = CH3CH2CH=CHCH2CH=CH(CH2)CH=CH(CH2)7CO, CC/C=C\C/C=C\C/C=C\CCCCCCCC(=O)*; Palmitoyl = CCCCCCCCCCCCCCCC(=O)*

Key:
[1] = Encapsulation rate of liposome (RP-HPLC); type: physicochemical; conditions: L9(3^4) orthogonal test of lipid components and liposome forming conditions; 6 mmol/L vitamin E
Experimental: Liposome was prepared by a double emulsion method. The lipid components were dissolved in ethyl ether solution, mixed with the concentrate of the present compound to form an emulsion (W/O), then poured into phosphate buffer (PB) or water under a controlled temperature and stirred to form a further emulsion (W/O/W), and liposome was gradually formed as ethyl ether gradually volatilized. The product in free form and aggregate and precipitate in the liquid was removed by concentration in ultrafiltration apparatus and dialysis (the dialysis must be 200 folds or higher) and by filtration via a 10 μm microporous filter. Aliquots were removed for reversed phase high performance liquid chromatography (RP-HPLC) to determine the encapsulation amount, and the encapsulation rate was calculated by comparing to the incorporated amount. L9(3^4) orthogonal table was used in the experimental design.
Based on the formulation and conditions determined by said orthogonal test, the effects of the concentration of the immunogen solution on the encapsulation rate of the liposome were compared. […]

[2] = Size shrinkage of liposome after lyophilization; type: physicochemical; conditions: 5% mannitol/10 mmol/L phosphate buffer
From the text: In the Table 16, all of the formulations 1-11 contained a buffer of 5% mannitol/10 mmol/L phosphate(KH2PO4/Na2HPO4 was 60/40)
When the addition amount of the concentrated liposome solution was 25-50% (v/v) of the semifinished product liquor for subpackage, addition of 1% human serum albumin as excipient will result in better lyophilization effects. Thus, when the volume of the concentrated liposome solution was equal to the volume of the emulsion (W/O), the volume of the concentrated liposome solution was determined as 37.5% (v/v) of the volume of the product liquor for subpackage, i.e., an average level of the amount of the concentrated liposome solution. In this case, the concentrations of the adjuvants in the product liquor for subpackage should meet the requirements as set forth in Table 16-4. The volume of subpackage should be 1 ml and meet the requirements for the formulation of lyophilized liposome injection. In practice, the volume of the concentrated liposome solution usually is greater than the volume of emulsion (W/O), so the volume of the product liquor for subpackage may be increased. Thus, the actual subpackage volume is calculated according to the following formula.

[3] = test system: HBV-DNA, HBeAg and HBsAg; experiment: FIG. 5: virus inhibition test with PBMC of HBV carrier and hepatitis patients; type: cell-based, hepatitis B virus; conditions: supernatant, with increase of co-culture time
From the text: FIG. 5 indicated the antiviral effects of the immunogen of the present invention. Peripheral blood mononuclear lymphocytes were separately isolated from fresh peripheral bloods of a HLA-A2+HBV carrier, a patient suffering from acute hepatitis, and a patient suffering from chronic hepatitis, and were subjected to virus inhibition tests to measure the copy numbers of HBV-DNA (A) and secretion levels of HBeAg and HBsAg in the supernatant (B, C).

[4] = test system: hepatitis B surface antigen (HBsAg) in HBV transgenic mice; experiment: HBV transgenic mice: HBsAg in serum, ELISA; type: in vivo; conditions: 10th, 20th, 30th day after three immunizations, 10-1000 U/mouse
Experimental: (§1) The levels of cytokines such as IFN-γ, IL-4, etc. in supernatant were measured by the ELISA method, and the activity of the test drug (CH3(CH2)14COKSSQYIKANSKFIGITEAAASIVSPFIPLLGGGDPRVRGLYFPA) (SEQ ID NO:5) for inducing the differentiation of T cells into Th1/Th2 type was analyzed. […] The expression frequency of IFN-γ secreting cells in peripheral blood lymphocytes was measured by the ELI-SPOT method in said supernatant. […] On the 10th, 20th and 30th day after the end of the three immunizations, bloods were removed, serum isolated, and the contents of HBsAg and HBV-DNA in the serum were separately measured by the ELISA method and quantitative PCR method.

[5] = test system: HBV DNA in HBV transgenic mice; experiment: HBV transgenic mice: HBV DNA in serum, quantitative PCR; type: in vivo; conditions: 10th, 20th, 30th day after three immunizations, 10-1000 U/mouse
Experimental: as §1

[6] = test system: HBV-DNA transgenic mice; experiment: HBV transgenic mice: IFN-γ secreting cells, ELI-SPOT; type: in vivo; conditions: 30th day after end of immunization
Experimental: as §1
The expression frequency of IFN-γ secreting cells in peripheral blood lymphocytes was measured by the ELI-SPOT method.

[7] = test system: HBV-DNA transgenic mice; experiment: HBV transgenic mice: cytokines of spleen lymphocytes, ELISA (Th1/Th2); type: in vivo; conditions: 10, 100, 1000 U/mouse s.c., day 30; spleen lymphocytes restimulated with 10 ng/ml for 3 days
Experimental: as §1
Then supernatants were collected and the secretion levels of cytokines such as TNF-α, IFN-γ, IL-4, etc. in supernatants were measured by ELISA, and the activity of the test drug for inducing the conversion of Th1/Th2 type from T cells in subjects was analyzed.

[8] = test system: enzyme-labeled antibody; experiment: Potency/specific activity of stock solution or semifinished product, enzyme-linked plate; type: binding; conditions: stock solution after reversed phase chromatography; batches 1-3 and x ± Sx
From the text: Chromatography column AP5 20/275 POROS 50 R1 was used in the batch production. After peptide-resin was cleaved and preliminarily purified, the collected εPA44 sample was divided into 7 parts for high purification, and the effects and reproducibility for batch purification of εPA44 stock solution were furthered studied. […] The collected elution peak fractions of εPA44 were pooled and mixed homogenously, aliquots were removed for analysis. If the sample met the set standards, it was used as the stock solution and was stored at −20° C. until use. The output, yield and specific activity of the product were calculated based on the measured data.
The semifinished product to be tested was diluted to a concentration within the measurable range of the potency determination. An enzyme-linked plate( ? ) was coated, blocked, bound by enzyme-labeled antibody, and developed. The absorbance at 450 nm (A450 nm) was detected by an enzyme-labeling device, and compared to the reference of the product. The potency of εPA44 in the extract of the sample was determined, and the specific activity of the semifinished product ( ? ) was calculated.
The reference of the product was 10-fold diluted with 50% ethanol, and then was two-fold serially diluted. 100 μl dilutions were separately added to the wells on the 96-well enzyme-linket immunosorbent assay plate, each well was repeated in triplicate. Coating was carried out in refrigerator at 4° C. for 20-24 hours. The stock solution of εPA44 was diluted and coated similarly to the reference. 100 μl of 50% ethanol was added to negative control wells. After the coating was completed, 200 μl 1% calf serum was added to each well, and blocked in refrigerator at 4° C. for 2 hours. The enzyme-linket immunosorbent assay plate was dried in air, 80 μl enzyme-labeled antibody was added to each well and incubated at 37° C. for 40 minutes. The plate was washed with wash solution for 4 times and dried in air, then 50 μl of substrate solution A and 50 μl of substrate solution B were added to each well and developed at 37° C. for 15 minutes under protection from light. Then 50 μl of stop solution was added to each well. A450 nm values were detected on 550 type enzyme-linket immunosorbent assay detector. The median dilution times of the reference and the samples were calculated by program or linear regression method based on the median effect value of the reference of εPA44 (median maximum absorbance), and the potency of the test sample and the specific activity of the product were calculated according to the following formulas.

[9] = test system: T2 cells, E6 cells and HepG2.2.15 cells; experiment: HBV-specific CTL from human PBMCs, 51Cr release cytotoxicity test; type: cell-based
Experimental: Human PBMCs were divided into groups and cultured in RPMI1640 culture media (containing 10% calf serum, and 100μ/ml penicillin-streptomycin) (10^6/ml, 24-well culture plates) in vitro for one day. After they recovered the original growth state, IL-2(30-IU/ml) and test drug (0.1 μg/ml, 1 μg/ml) were separately added. […] 3 days after the last stimulation, antigen-specific effective CTL cells were obtained. Cytotoxicity was tested by standard ^51Cr release tests and compared. Target cells (T2 cells and HepG2.2.1.5 cells pre-coated with peptide) were grown to a good state. 10 hours before the cells were used, 10 μg/ml test drug was added to the culture, and the cells were incubated. 10^6 Target cells were placed in 1 ml RPMI1640 media (containing 20% calf serum), and 100 μCi ^51Cr (NEN) was added for labelling in water-bath at 37° C. for 2 hours. The labelled target cells were washed with sterilized PBS buffer for 3 times under centrifugation (500 rpm/5 min), and were plated on 96-well V-bottom culture plates in an amount of 10^4 target cells/50 μl/well, each well was treated in triplicate. […] The minimum release value was 30% lower than the maximum release value. The formula for calculating ^51Cr release percentage was: [(CPMsample−CPMminimum release)/(CPMmaximum release−CMPminimum release)]×100%.

[10] = test system: peripheral blood mononuclear lymphocytes of HLA-A2+ healthy person; conditions: culture supernatant, 24 h after last stimulation

Substance	Encapsulation rate [1]	degree of size shrinkage of the liposome after lyophilization [2]	other results
1 (Palmitoyl-KSSQYIKANSKFIGITEAAAFLPSDFFPSVGGGDPRVRGLYFPA) [compound 1]	93.16%	++++	
3 (KSSQYIKANSKFIGITEGGGDPRVRGLYFPA; not fully specified (N-terminus); printed as CH3CH2CH═CHCH2CH═CH(CH2)7CO7KSSQYIKANSKFIGITEGGGDPRVRGLYFPA; also: N-terminal acyl on K unclear: CH3(CH2)7CH=CH(CH2)-CO or CH3CH2CH=CHCH2CH=CH(CH2)7CO) [compound 3]	44.92%	+++	
4 (Palmitoyl-KSSQYIKANSKFIGITEAAAFLPSDFFPSVGGGCTKPTDGNCT; cysteine pairing not given here) [compound 4]	69.48%	++	
5 (Palmitoyl-KSSQYIKANSKFIGITEAAASIVSPFIPLLGGGDPRVRGLYFPA) [compound 5]	97.27%	+++	
6 (QYIKANSKFIGITE; Th cell epitope from tetanus toxoid or variant species thereof) [compound 6]	79.26%	+++	
7 (PADRE; Th cell epitope from tetanus toxoid or variant species thereof) [compound 7]	53.75%	−	
8 (PLGFFPDH; Hepatitis B virus) [compound 8]	79.29%	−	
9 (MQWNSTALHQALQDP; Hepatitis B virus) [compound 9]	109.4%	+	
10 (SILSKTGDPV; Hepatitis B virus) [compound 10]		+	
CH3(CH2)14COKSSQYIKANSKFIGITEAAAFLPSDFFPSVGGGCTKPTDGNCT (Palmitoyl-KSSQYIKANSKFIGITEAAAFLPSDFFPSVGGGCTKPTDGNCT; cysteine pairing not given here) [SEQ ID NO:4]			copy numbers of HBV-DNA [3]: inhibited in an obvious dose-effect dependence relation; secretion level of HBeAg [3]: inhibited in an obvious dose-effect dependence relation; secretion level of HBsAg [3]: inhibited in an obvious dose-effect dependence relation
CH3(CH2)14COKSSQYIKANSKFIGITEAAASIVSPFIPLLGGGDPRVRGLYFPA (Palmitoyl-KSSQYIKANSKFIGITEAAASIVSPFIPLLGGGDPRVRGLYFPA) [SEQ ID NO:5]			HBsAg in the serum [4]: obvious decrease; HBV-DNA in the serum (copy number, replication level) [5]: obvious decrease; expression frequency of IFN-γ secreting cells in peripheral blood lymphocytes ([6]; 10-1000 U/mouse): increased with the increase of immunogen dose; highest expression frequency of IFN-γ secreting cells ([6]; IFN-α2b at 15000 U/mouse): 3660 IFN-γ secreting cells/10^6 PBMC; IL-4 secretion [7]: did not exhibit an obvious dose-effect dependence relation; secretion of IFN-γ [7]: strong secretion of IFN-γ
CH3(CH2)14COKSSYIKANSK FIGITEAAAMQWNSTALHQALQDPGGGDPRVRGLYFPA (Palmitoyl-KSSYIKANSKFIGITEAAAMQWNSTALHQALQDPGGGDPRVRGLYFPA) [SEQ ID NO:72]			Specific activity [8]: 11689.76±1503.57 U/mg
CH3CH2CH═CHCH2CH═CH(CH2)CH═CH(CH2)7COFLPSDFFPSVAAADPRVRGLYFPA (linolenoyl-FLPSDFFPSVAAADPRVRGLYFPA) [SEQ ID NO:54]			specific killing of target cells [9]: specifically kill peptide pre-coated T2 cells, E cells and HepG2.2.15 cells; target cell-specific lysis rate ([9]; PBMCs of healthy human): up to 62.8%
CH3CH2CH═CHCH2CH═CH(CH2)CH═CH(CH2)7COKSSPAREGGGWLSLLVPFVSSSDP RVRGLYFPA [SEQ ID NO:2]			effect of inducing the secretion of IL-4 [10]: not obvious; secretion of IFN-γ [10]: induce the secretion of IFN-γ in a notable dose-effect dependence relation
